# Test results: US20200115447A1 (Chugai, published 2020)
# Positions count from the first letter of the chain named.
# T1: mouse FcRn (mouse, UniProt Q61559 22-297; P01887 21-119, limits assumed)
# T1 sequence (looked up) 1: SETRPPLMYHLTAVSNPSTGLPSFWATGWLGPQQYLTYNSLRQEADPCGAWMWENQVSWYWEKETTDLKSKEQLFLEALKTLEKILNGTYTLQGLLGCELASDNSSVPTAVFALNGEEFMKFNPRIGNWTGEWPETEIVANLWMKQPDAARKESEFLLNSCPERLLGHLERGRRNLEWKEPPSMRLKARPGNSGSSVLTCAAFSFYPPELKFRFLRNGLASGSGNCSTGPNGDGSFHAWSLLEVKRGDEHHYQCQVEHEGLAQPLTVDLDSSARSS
# T1 sequence (looked up) 2: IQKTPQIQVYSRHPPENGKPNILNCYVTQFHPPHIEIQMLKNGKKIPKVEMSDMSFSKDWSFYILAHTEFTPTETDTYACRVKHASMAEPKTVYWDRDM
# T2: mFcγRI extracellular domain with C-terminal His-tag (mouse, UniProt P26151 25-297)
# T2 construct: extracellular domain; also called mouse FcγRI
# T2 sequence (looked up): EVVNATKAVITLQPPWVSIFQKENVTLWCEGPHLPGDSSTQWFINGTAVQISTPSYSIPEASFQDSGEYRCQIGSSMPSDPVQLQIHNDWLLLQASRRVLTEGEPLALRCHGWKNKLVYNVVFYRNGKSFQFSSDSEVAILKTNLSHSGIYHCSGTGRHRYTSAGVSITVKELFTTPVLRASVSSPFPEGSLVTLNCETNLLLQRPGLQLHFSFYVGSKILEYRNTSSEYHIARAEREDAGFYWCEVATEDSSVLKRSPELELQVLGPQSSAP
# T3: mFcγRII extracellular domain with C-terminal His-tag (mouse, UniProt P08101 30-210)
# T3 construct: extracellular domain; also called mouse FcγRII
# T3 sequence (looked up): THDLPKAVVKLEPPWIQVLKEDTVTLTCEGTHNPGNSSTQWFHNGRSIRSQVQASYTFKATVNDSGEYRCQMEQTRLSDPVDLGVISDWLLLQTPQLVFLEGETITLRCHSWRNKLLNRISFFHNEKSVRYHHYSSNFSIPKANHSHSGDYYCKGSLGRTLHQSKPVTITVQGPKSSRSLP
# T4: mFcγRIII extracellular domain with C-terminal His-tag (mouse, UniProt P08508 31-215)
# T4 construct: extracellular domain; also called mouse FcγRIII
# T4 sequence (looked up): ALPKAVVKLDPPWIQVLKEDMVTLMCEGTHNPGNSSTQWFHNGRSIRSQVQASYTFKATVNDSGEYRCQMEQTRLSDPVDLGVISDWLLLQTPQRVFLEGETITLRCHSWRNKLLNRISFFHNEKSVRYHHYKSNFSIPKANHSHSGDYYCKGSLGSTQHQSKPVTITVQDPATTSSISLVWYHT
# B1: F1430 (antibody, IgG1, name in EU numbering)
# heavy: QVQLQESGPGLVKPSETLSLTCAVSGHSISHDHAWSWVRQPPGEGLEWIGFISYSGITNYNPSLQGRVTISRDNSKNTLYLQMNSLRAEDTAVYYCARSLARTTAMDYWGEGTLVTVSSASTKGPSVFPLAPSSKSTSGGTAALGCLVKDYFPEPVTVSWNSGALTSGVHTFPAVLQSSGLYSLSSVVTVPSSSLGTQTYICNVNHKPSNTKVDKKVEPKSCDKTHTCPPCPAPELRGGPKVFLFPPKPKDTLYISREPEVTCVVVDVSHEDPEVKFNWYVDGVEVHNAKTKPREEQYNSTYRVVSKLTPLHQDWLNGKEYKCKVSNKALPAPIEKTISKAKGQPREPQVYTLPPSRDELTKNQVSLTCLVKGFYPSDIAVEWESNGQPENNYKTTPPVLDSDGSFFLYSKLTVDKSRWQQGNVFSCSVMHEALDYHVTRKELSLSP
# light: not shown
# notes: EU numbering; copies: 2 + 2
# B2: Fv4-mF3 (antibody, mouse IgG1, kappa)
# heavy: QVQLQESGPGLVKPSETLSLTCAVSGHSISHDHAWSWVRQPPGEGLEWIGFISYSGITNYNPSLQGRVTISRDNSKNTLYLQMNSLRAEDTAVYYCARSLARTTAMDYWGEGTLVTVSSAKTTPPSVYPLAPGSAAQTNSMVTLGCLVKGYFPEPVTVTWNSGSLSSGVHTFPAVLQSDLYTLSSSVTVPSSTWPSETVTCNVAHPASSTKVDKKIVPRDCGCKPCICTVPEVSSVFIFPPKPKDVLYITLEPKVTCVVVDISKDDPEVQFSWFVDDVEVHTAQTQPREEQFNSTFRSVSELPIMHQDWLNGKEFKCRVNSAAFPAPIEKTISKTKGRPKAPQVYTIPPPKEQMAKDKVSLTCMITDFFPEDITVEWQWNGQPAENYKNTQPIMDTDGSYFVYSKLNVQKSNWEAGNTFTCSVLHEGLKFHHTEKSLSHSPGK
# light: DIQMTQSPSSLSASVGDSVTITCQASTDISSHLNWYQQKPGKAPELLIYYGSHLLSGVPSRFSGSGSGTDFTFTISSLEAEDAATYYCGQGNRLPYTFGQGTKVEIERADAAPTVSIFPPSSEQLTSGGASVVCFLNNFYPKDINVKWKIDGSERQNGVLNSWTDQDSKDSTYSMSSTLTLTKDEYERHNSYTCEATHKTSTSPIVKSFNRNEC
# notes: VH3-mF3 with VL3-mCK; copies: 2 + 2
# B3: IgG1-F157 (antibody)
# heavy: QVQLQESGPGLVKPSETLSLTCAVSGHSISHDHAWSWVRQPPGEGLEWIGFISYSGITNYNPSLQGRVTISRDNSKNTLYLQMNSLRAEDTAVYYCARSLARTTAMDYWGEGTLVTVSSASTKGPSVFPLAPSSKSTSGGTAALGCLVKDYFPEPVTVSWNSGALTSGVHTFPAVLQSSGLYSLSSVVTVPSSSLGTQTYICNVNHKPSNTKVDKKVEPKSCDKTHTCPPCPAPELLGGPSVFLFPPKPKDTLMISRTAEVTCVVVDVSHEDPEVKFNWYVDGVEVHNAKTKPREEQYNSTYRVVSVLTPLHQDWLNGKEYKCKVSNKALPAPIEKTISKAKGQPREPQVYTLPPSRDELTKNQVSLTCLVKGFYPSDIAVEWESNGQPENNYKTTPPVLDSDGSFFLYSKLTVDKSRWQQGNVFSCSVLHEALHYHYTQKSLSLSP
# light: not shown
# notes: EU numbering; also called VH3/L(WT)-F157; copies: 2 + 2
# B4: F1353 (antibody)
# heavy: B1 heavy with E258T, K307V, P310V, V438T
# light: not shown
# notes: EU numbering; copies: 2 + 2
# Key:
# human FcRn [1] = target: T5, human FcRn (human); assay: Biacore SPR, antibody captured on protein L, human FcRn as analyte, pH 7.0, 25 C
# T5 construct: also called soluble human FcRn complexed with β2-microglobulin
# T5 sequence (chain, as listed by the source limits assumed, chain 1 of 2): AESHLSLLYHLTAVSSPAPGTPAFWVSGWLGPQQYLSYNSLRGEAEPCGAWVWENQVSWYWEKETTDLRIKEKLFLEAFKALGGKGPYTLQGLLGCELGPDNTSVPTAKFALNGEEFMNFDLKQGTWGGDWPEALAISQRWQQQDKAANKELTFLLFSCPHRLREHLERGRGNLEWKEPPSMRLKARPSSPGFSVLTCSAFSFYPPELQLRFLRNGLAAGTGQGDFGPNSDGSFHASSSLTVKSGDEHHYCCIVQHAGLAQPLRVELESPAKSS
# T5 sequence (P61769 21-119 limits assumed, chain 2 of 2): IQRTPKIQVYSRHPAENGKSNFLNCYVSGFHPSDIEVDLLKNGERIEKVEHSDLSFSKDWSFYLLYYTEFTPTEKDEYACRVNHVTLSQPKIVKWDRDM
# Protocol: (§1) Kinetic analyses between human FcRn and the antibody were carried out using Biacore T100 (GE Healthcare). A suitable amount of protein L (ACTIGEN) was immobilized onto a Sensor chip CM4 (GE healthcare) by the amine coupling method, and antibodies of interest were captured onto it. Next, diluted solutions of FcRn and the running buffer which is the blank were injected, and human FcRn was made to interact with the antibodies captured on the sensor chip. The running buffer used was 50 mmol/L sodium phosphate, 150 mmol/L NaCl, 0.05% (w/v) Tween 20, pH7.0, and the buffer was used for the FcRn dilutions. The sensor chip was regenerated using 10 mmol/L Glycine-HCl, pH1.5. All measurements were carried out at 25° C. Based on the association rate constant ka (1/Ms) and dissociation rate constant kd (1/s), which are kinetic parameters, calculated from the sensorgram obtained by the measurement, the KD (M) (affinity) of each antibody toward human FcRn was calculated. Each parameter was calculated using the Biacore T100 Evaluation Software (GE Healthcare).
# mouse FcRn = target: T1, mouse FcRn; assay: Biacore SPR, mouse FcRn, pH 7.0
# [2] = target: T2, mFcγRI extracellular domain with …; assay: Biacore SPR, antibody captured on Protein L, FcγR extracellular domain as analyte, 25 C
# Protocol: (§2) Analysis of interaction between each of the altered antibodies and the extracellular domain of the Fcγ receptor prepared as mentioned above was carried out using Biacore T100 (GE Healthcare), Biacore T200 (GE Healthcare), Biacore A100, and Biacore 4000. HBS-EP+(GE Healthcare) was used for the running buffer, and the interactions were measured with a measurement temperature at 25° C. Chips produced by immobilizing Protein L (ACTIGEN or BioVision) by the amine coupling method to a Series S sensor Chip CM5 (GE Healthcare) or Series S sensor Chip CM4 (GE Healthcare) were used.
# After capturing of each of the altered antibodies onto these sensor chips, the extracellular domain of the Fcγ receptor diluted with the running buffer was allowed to act on the chips to measure the binding level of each of the domains to each of the antibodies, and the binding levels were compared. However, since the amount of the bound extracellular domain of the Fcγ receptor depends on the amount of the antibodies captured on the sensorchip, the amount of the bound extracellular domain of the Fcγ receptor was divided by the respective amount of captured antibody to obtain corrected values, and these values were compared. Furthermore, by reaction with 10 mM glycine-HCl having pH of 1.5, antibodies captured onto the sensor chips were washed, and the regenerated sensor chips were used repeatedly.
# [3] = target: T3, mFcγRII extracellular domain with …; assay: Biacore SPR, antibody captured on Protein L, FcγR extracellular domain as analyte, 25 C, 1:1 Langmuir fit
# Protocol: as §2
# (§3) The KD values of each of the altered antibodies for the extracellular domain of the Fcγ receptor were calculated according to the following kinetic analysis method.
# [4] = target: T4, mFcγRIII extracellular domain with …; assay: as above
# Protocol: as §2, §3
# human FcRn [5] = target: T6, human FcRn (human); assay: Biacore SPR, pH7.0, against VH3/L(WT)-IgG1
# T6 construct: also called soluble human FcRn complexed with β2-microglobulin
# T6 sequence (chain, as listed by the source limits assumed, chain 1 of 2): as the sequence (chain, as listed by the source limits assumed, chain 1 of 2) above
# T6 sequence (P61769 21-119 limits assumed, chain 2 of 2): as the sequence (P61769 21-119 limits assumed, chain 2 of 2) above
# Protocol: as §1
# human FcRn [6] = target: T7, human FcRn (human); assay: Biacore, pH 7.0
# T7 construct: also called soluble human FcRn complexed with β2-microglobulin
# T7 sequence (chain, as listed by the source limits assumed, chain 1 of 2): as the sequence (chain, as listed by the source limits assumed, chain 1 of 2) above
# T7 sequence (P61769 21-119 limits assumed, chain 2 of 2): as the sequence (P61769 21-119 limits assumed, chain 2 of 2) above
# Protocol: as §1
binder,measurement,setting,value
B1,Kd,human FcRn [1],31 nM
B2,Kd,mouse FcRn,1.5 nM
same,binding result,[2],no binding
same,Kd,[3],870 nM
same,Kd,[4],140 nM
B3,fold affinity relative to IgG1,human FcRn [5],~600 fold
B4,Kd,human FcRn [6],133 nM
